The text below walks through data of patent publication US20200384109A1 (Novartis, published 2020).

As usually defined, the Kd is the equilibrium constant for the complex coming apart.

Assay [1] addresses T1, BKV serotype IV (ST4) virus-like particles (VLPs) (BK virus serotype IV, UniProt P14996 1-362).
T1 construct: VLP made by expressing VP1 in Sf9 insect cells and composed of 72 VP1 pentamers; also called BKV ST4 VLP; BKV ST4
Briefly: ELISA on plates coated with BKV ST1 or ST4 VLPs (100 ng/well). In general terms: An ELISA detects its analyte on a solid surface through an enzyme-linked reagent.
Protocol: The binding of antibodies to VLPs were analyzed by ELISA. Briefly, Nunc MaxiSorp 384-well plates (Thermo Scientific) were coated with 100 ng/well BKV VLPs to BK serotype I (ST1) or serotype IV (ST4) overnight. Antibodies were serially diluted in PBS with 0.5% BSA and allowed to bind antigen-coated plates for 2 hours. […] Plates were washed with PBS and tetramethylbenzidine (TMB) microwell peroxidase substrate (SeramunBlau Fast, Seramun, Germany) was used to develop the reactions.

For assay [2], the target named is T1, BKV serotype IV (ST4) virus-like …. Briefly: solution equilibration titration (SET) with BKV VLPs.
In assay [3] the target is T2, BKV serotype I (ST1) virus-like particles (VLPs) (BK virus serotype I, UniProt P03088 1-362).
T2 construct: VLP made by expressing VP1 in Sf9 insect cells and composed of 72 VP1 pentamers; also called BKV ST1 VLP; BKV ST1
T2 chain: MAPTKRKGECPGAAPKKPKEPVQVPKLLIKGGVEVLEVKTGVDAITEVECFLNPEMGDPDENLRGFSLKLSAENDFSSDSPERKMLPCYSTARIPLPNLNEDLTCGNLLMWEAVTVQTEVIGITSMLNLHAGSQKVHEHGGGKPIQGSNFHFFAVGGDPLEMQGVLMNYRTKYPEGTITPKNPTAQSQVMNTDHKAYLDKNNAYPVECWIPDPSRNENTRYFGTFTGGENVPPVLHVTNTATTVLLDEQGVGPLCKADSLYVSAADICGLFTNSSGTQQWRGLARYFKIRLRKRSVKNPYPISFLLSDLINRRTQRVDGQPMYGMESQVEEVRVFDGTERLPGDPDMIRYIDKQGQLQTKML
Briefly: solution equilibration titration (SET), antibody 1 pM, BKV VLPs in solution, MSD read-out.

In another assay the target is JC virus (JCV) (JC virus, UniProt P03089 1-354). Put plainly: cell-based or functional assay.

Where only a bound is given, the exact number is not on record here.

B1: NOV638 (antibody, V domains shown)
VH: QVQLVQSGAEVKKPGASVKVSCKASGYTFTSYDIIWVRQATGQGLEWMGRMNPTGGNTDYVPKFQGRVTMTRDISLSTAYMELRSLTSEDTAVFYCARGVKSLGVSEIDYWGQGTLVTVSS
VL: QSALTQPPSVSAAPGQKVTISCSGSTSNIANNYVLWYQQLPGTAPKLLIYDNNKRPSGIPDRFSGSKSGTSATLGITGLQTADEADYYCGTWDNSLSVGVFGGGTKLTVLG
notes: also called antibody NOV638
In the case of B1, in assay [1], the binding result is “no binding”.

B2: NOV581 (antibody, V domains shown)
VH: QVQLVESGGGLVQPGGSLRLSCVASGFTFSGYNMHWVRQAPGKGLEWVSYISNSGRTIYYADSVKGRFTLSRDNAKNSLYLQMNSLRAEDTAVYFCARDRDPQWLGNDALQIWGQGTMVTVSS
VL: EIVLTQSPGTLSLSPGERATLSCRASQSVSSGYLAWYQQKPGQAPRLLIYGASSRATGIPDRFSGSGSGTDFTLTISRLEPEDFAVYYCQQYGTSRKTFGQGTKVEIKR
notes: also called antibody NOV581; clone NOV581
Consider B2, for which the binding result in assay [2] is reported as “no binding”. Besides, the Kd in assay [3] is below 0.05 nM.

B3: NOV530 (antibody, V domains shown)
VH: QVQLQESGPGLVKPSQTLSLTCTVSGGSISGGGYYWSWIRQHPGKGLEFIGYIYYNRGTYYNPALKSRLTISVDTSKNDFSLKLSSVSAADTAVYYCARCVLGGYGSDAFDRWGQGTTVTVAS
VL: EIVLTQSPVTLSLSPGERAILSCRASQSVSSHLAWYQQKPGQAPRLLIYDASSRANGIPARFSGSGSGTDFTLTISSLAPEDFAVYYCQQRSSWPPSLTFGGGTKVEIRR
notes: also called antibody NOV530; cross-neutralizing IgG NOV530
In the case of B3, the “EC50 of virus neutralization” value with JC virus (JCV) is below 1 nM. For the same molecule, the dissociation constant Kd in assay [3] was below 0.05 nM.
